How the values were obtained:
[1] = target: T1, A-type natriuretic peptide (ANP), P01160
T1 chain: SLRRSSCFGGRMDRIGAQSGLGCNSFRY

[2] = target: T2, C-type natriuretic peptide 22 (CNP 22), P23582
T2 chain: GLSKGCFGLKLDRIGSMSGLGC

[3] = target: T3, melanin-concentrating hormone (MCH), P20382
T3 chain: DFDMLRCMLGRVYRPCWQV

[4] = target: neuropeptide Y (NPY), P01303
[5] = target: T4, vasoactive intestinal peptide (VIP), P01282
T4 chain: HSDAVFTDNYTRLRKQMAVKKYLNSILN

[6] = target: T5, α-melanocyte stimulating hormone (α-MSH), P01189 (not fully specified)
T5 chain: SYSMEHFRWGKPV

B1: purified signal-FLAG-ARS-extracellular enzyme after the treatment with trypsin beads (protein)
chain: STQGFHVDHTAELRGIRWTSSLRRETSDYHRTLTPTLEALFVSSFQKTELEASCVGCSVLNYRDGNSSVLVHFQLHFLLRPLQTLSLGLEEELLQRGIRARLREHGISLAAYGTIVSAELTGRHKGPLAERDFKSGRCPGNSFSCGNSQCVTKVNPECDDQEDCSDGSDEAHCECGLQPAWRMAGRIVGGMEASPGEFPWQASLRENKEHFCGAAIINARWLVSAAHCFNEFQDPTKWVAYVGATYLSGSEASTVRAQVVQIVKHPLYNADTADFDVAVLELTSPLPFGRHIQPVCLPAATHIFPPSKKCLISGWGYLKEDFLVKPEVLQKATVELLDQALCASLYGHSLTDRMVCAGYLDGKVDSCQGDSGGPLVCEEPSGRFFLAGIVSWGIGCAEARRPGVYARVTRLRDWILEATTKASMPLAPTMAPAPAAPSTAWPTSPESPVVSTPTKSMQALSTVPLDWVTVPKLQGIFGAER
cleavage of the substrate peptide, HPLC analysis after reaction at 37° C. for 16 hours [1]: the enzyme sample selectively cleaved VIP, NPY, ANP, CNP, α-MSH, and MCH
cleavage of the substrate peptide, HPLC analysis after reaction at 37° C. for 16 hours [2]: the enzyme sample selectively cleaved VIP, NPY, ANP, CNP, α-MSH, and MCH
cleavage of the substrate peptide, HPLC analysis after reaction at 37° C. for 16 hours [3]: the enzyme sample selectively cleaved VIP, NPY, ANP, CNP, α-MSH, and MCH
cleavage of the substrate peptide, HPLC analysis after reaction at 37° C. for 16 hours [4]: the enzyme sample selectively cleaved VIP, NPY, ANP, CNP, α-MSH, and MCH
cleavage of the substrate peptide, HPLC analysis after reaction at 37° C. for 16 hours [5]: the enzyme sample selectively cleaved VIP, NPY, ANP, CNP, α-MSH, and MCH
cleavage of the substrate peptide, HPLC analysis after reaction at 37° C. for 16 hours [6]: the enzyme sample selectively cleaved VIP, NPY, ANP, CNP, α-MSH, and MCH
